In US20100129344A1, “MEDICAL USES AND THERAPIES BASED UPON THE ACTION OF AZUROCIDIN ON IGFBP-1” (priority 2005, published 2010):

T1: IGFBP-1 (Homo sapiens, UniProt P08833)
T1 construct: purchased Kabi Pharmacia (Sweden), donated
T1 sequence (P08833 26-259): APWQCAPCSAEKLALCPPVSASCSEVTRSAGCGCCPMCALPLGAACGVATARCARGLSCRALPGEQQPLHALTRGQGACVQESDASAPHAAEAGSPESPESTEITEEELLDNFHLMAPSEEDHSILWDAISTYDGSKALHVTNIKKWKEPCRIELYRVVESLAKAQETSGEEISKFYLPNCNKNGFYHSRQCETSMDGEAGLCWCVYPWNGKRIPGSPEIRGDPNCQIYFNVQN


Tests used:
IGF-I = IGF-I (Homo sapiens, UniProt P05019); conditions: IGFBP-1 purified from amniotic fluid; cited from earlier work
Sequence of IGF-I (P05019 49-118): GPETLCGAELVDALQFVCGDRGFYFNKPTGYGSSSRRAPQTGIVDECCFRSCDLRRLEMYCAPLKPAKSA

IGF-II = IGF-II (Homo sapiens, UniProt P01344); conditions: IGFBP-1 purified from amniotic fluid; cited from earlier work
Sequence of IGF-II (P01344 25-91): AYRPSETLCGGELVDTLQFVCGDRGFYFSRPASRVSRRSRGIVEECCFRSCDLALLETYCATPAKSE

IGFBP-1 = target: T1, IGFBP-1; assay: Azurocidin-dependent IGFBP-1 protease activity (SDS-PAGE, ECL or silver staining); type: biochemical
Protocol: Recombinant phosphorylated IGFBP-1 was used as substrate and incubations were carried out under neutral conditions for 2 h at 37 C. IGFBP-1 fragments were separated on SDS-PAGE, and detected by ECL as described in the methods. Panel A: Incubations with 0.25 μL eluate (HE) from heparin affinity chromatography (50 μl urine equiv.) in the presence and absence of anti-azurocidin antibody; and 1 μl HE of the loading material (L), and the flow through after affinity chromatography on protein G columns without (G) and with bound anti-chymase (C) or anti-azurocidin (A) antibodies. Panel B: Incubations in the presence and absence of 25 ng anti-azurocidin antibody with increasing volumes of white cell extract from the individual with a specific IGFBP-1 protease in urine compared to the white cell extract pooled from 6 healthy subjects;
Recombinant IGFBP-1 was incubated with the eluate from heparin affinity chromatography (HE) with a ratio of azurocidin:BP-1 of 1:3,500. After the times indicated, proteins were detected by silver staining after SDS-PAGE;
Gels were fixed, dried and analysed with the Fuji PhosphoImage program (Fuji Co., Stockholm, Sweden). Biotinylated IGFBP-1 and its fragments were separated on 14% SDS-PAGE under reducing conditions, transferred to PVDF (Biorad, Sundbyberg, Sweden), incubated with neutravidin-horseradish peroxidase (Pierce Biotechnology Inc, Rochester, Ill.) and detected by ECL (Amersham Biosciences, Uppsala, Sweden). Silver staining of proteins and fragments was performed after denaturing 12% PAGE under reducing conditions (SilverQuest and NuPAGE, Invitrogen, Stockholm, Sweden).
Heparin affinity chromatography was carried out in batches using heparin-agarose gel (Pharmacia). Urine was diluted 1:5 in 10 mM sodium phosphate, with 0.25 M NaCl buffer, pH 7 and incubated with gel for 30 min at 4 C. The gel was transferred to a column and washed with 10 times the gel volume of buffer. Heparin binding proteins were eluted in loading buffer containing 2M NaCl and the eluate was desalted, concentrated using a 10 kDa spin column and stored at −80 C. Concentrated material derived from 700 ml urine were applied to C4 reverse-phase HPLC, in 0.1% TFA on an acetonitrile gradient of 0-100%. Immunoaffinity chromatography was performed using monoclonal anti-azurocidin antibody attached to protein G Sepharose (Sigma-Aldrich, Sweden). In brief, antibody bound gel was incubated with the eluate from heparin affinity chromatography for 2 h at 22 C, and transferred to a Bio-Spin chromatography column (BioRad). The flow-through was collected for analysis of protease activity. As controls, an additional column was prepared with a monoclonal antibody against human mast cell chymase and a second column with no bound antibody.

monocyte = conditions: cited from earlier work
[1] = pH increased from 5.5 to 6.5; cited from earlier work

Molecule | association constant for IGF-I (IGF-I) | association constant for IGF-II (IGF-II) [L/mol] | pH above which action on IGFBP-1 is greater (IGFBP-1) | effect on IGFBP-1 (proteolysis) after HPLC-passage (IGFBP-1; after reverse-phase HPLC) | time until proteolysis of phosphorylated IGFBP-1 is seen (IGFBP-1; protease:substrate molar ratio 1:3,500) | concentration at which proteolytic effect on IGFBP-1 is noticeable (IGFBP-1; purified preparation) | concentration level required for monocyte chemotaxis (monocyte) | decrease of bactericidal activity [1]
IGFBP-1 purified from amniotic fluid: 28 kDa IGF-binding protein purified from human amniotic fluid (protein, UniProt P08833 26-259, looked up) Insulin-like growth …: APWQCAPCSAEKLALCPPVSASCSEVTRSAGCGCCPMCALPLGAACGVATARCARGLSCRALPGEQQPLHALTRGQGACVQESDASAPHAAEAGSPESPESTEITEEELLDNFHLMAPSEEDHSILWDAISTYDGSKALHVTNIKKWKEPCRIELYRVVESLAKAQETSGEEISKFYLPNCNKNGFYHSRQCETSMDGEAGLCWCVYPWNGKRIPGSPEIRGDPNCQIYFNVQN | approximately 6.6×10^9 L/mol | ~3.2e+09 |  |  |  |  |  | 
azurocidin: protein from granules of human polymorphonuclear leukocytes, SEQ ID NO. 1; identified here as IGFBP-1 specific protease (protein, listed as Homo sapiens) IVGGRKARPRQFPFLASIQNQGRHFCGGALIHARFVMTAASCFQSQNPGVSTVVLGAYDLRRRERQSRQTFSISSMSENGYDPQQNLNDLMLLQLDREANLTSSVTILPLPLQNATVEAGTRCQVAGWGSQRSGGRLSRFPRFVNVTVTPEDQCRPNNVCTGVLTRRGGICNGDGGTPLVCEGLAHGVASFSLGPCGRGPDFFTRVALFRDWIDGVLNNPGPGPA |  |  | > 6 | without effect | within minutes | nanomolar | micromolar | at least 50%
